# ± gives the uncertainty stated by the source.
# B1: E3 ubiquitin-protein ligase NEDD4-like, residues 539 to 589; numbered along this chain, Q96PU5 (parent)
# chain: KTSLNPNDLGPLPPGWEERIHLDGRTFYIDHNSKITQWEDPRLQNPAITGP
# Variants of: B1
# Assay: abundance fitness (aPCA) (normalised: wild type 0, dead -1); higher = more abundant; growth selection in yeast, the domain comes from the species named
# Conditions: Homo sapiens
row,Variant,abundance fitness
1,P14K,-0.044 ± 0.044
2,P14S,-0.042 ± 0.054
3,P14E,0.009 ± 0.048
4,P14R,-0.085 ± 0.049
5,P51C,-0.232 ± 0.098
6,P51E,-0.109 ± 0.45
7,P51R,-0.345 ± 0.25
8,P51V,-0.65 ± 0.45
9,N32Q,-0.18 ± 0.073
10,N32T,-0.035 ± 0.084
11,N32V,-0.064 ± 0.05
12,N32F,-0.39 ± 0.095
13,N32D,-0.118 ± 0.094
14,N32S,-0.086 ± 0.054
15,N32H,-0.286 ± 0.079
16,N32I,0.074 ± 0.098
17,H31Y,-0.414 ± 0.1
18,H31A,-0.174 ± 0.052
19,H31E,-0.243 ± 0.042
20,H31V,-0.07 ± 0.053
21,H31F,-0.479 ± 0.12
22,H31Q,-0.224 ± 0.071
23,G24A,-0.608 ± 0.064
24,G24V,-1.03 ± 0.065

row,Variant,abundance fitness
1,G24E,-0.719 ± 0.072
2,G24R,-0.56 ± 0.057
3,R19G,-0.175 ± 0.047
4,R19K,-0.198 ± 0.098
5,R19V,-0.155 ± 0.053
6,R19H,-0.423 ± 0.093
7,R19D,-0.421 ± 0.078
8,R19T,-0.342 ± 0.063
9,R19M,-0.233 ± 0.081
10,R19Q,-0.361 ± 0.12
11,R19Y,-0.216 ± 0.08
12,R19N,-0.368 ± 0.13
13,G10M,-0.485 ± 0.07
14,G10P,-0.347 ± 0.046
15,G10Q,-0.276 ± 0.049
16,I48Q,1.1 ± 0.46
17,I48V,0.132 ± 0.31
18,S3A,-0.412 ± 0.047
19,S3C,-0.339 ± 0.1
20,S3V,-0.353 ± 0.043
21,S3W,-0.86 ± 0.086
22,S3Q,-0.427 ± 0.07
23,S3P,-0.308 ± 0.038
24,S3Y,-0.046 ± 0.081

row,Variant,abundance fitness
1,S3E,-0.363 ± 0.071
2,S3R,-0.338 ± 0.042
3,S3T,-0.175 ± 0.041
4,E39Q,-0.362 ± 0.11
5,E39D,-0.077 ± 0.063
6,E39L,-0.313 ± 0.057
7,E39A,-0.15 ± 0.051
8,E39M,-0.245 ± 0.059
9,P6D,0.159 ± 0.051
10,P6I,0.077 ± 0.099
11,P6S,0.156 ± 0.057
12,P6Y,-0.105 ± 0.12
13,T26Y,-0.105 ± 0.094
14,T26E,-0.403 ± 0.051
15,T26H,0.084 ± 0.079
16,T26R,-0.011 ± 0.045
17,T26W,-0.645 ± 0.065
18,T26K,0.056 ± 0.052
19,T26P,-0.051 ± 0.073
20,T26A,-0.065 ± 0.045
21,P41T,-0.875 ± 0.079
22,P41A,-0.947 ± 0.078
23,P41V,-0.848 ± 0.052
24,P41W,-1.11 ± 0.067

row,Variant,abundance fitness
1,Y28S,-0.399 ± 0.046
2,Y28I,-0.273 ± 0.1
3,Y28Q,-0.424 ± 0.088
4,Y28M,-0.991 ± 0.12
5,Y28H,-0.636 ± 0.11
6,Y28W,-0.008 ± 0.063
7,Y28F,-0.347 ± 0.11
8,F27D,-0.27 ± 0.07
9,F27I,-0.163 ± 0.098
10,F27C,-0.056 ± 0.076
11,F27K,-0.002 ± 0.072
12,F27E,0.175 ± 0.07
13,F27G,-0.197 ± 0.047
14,F27N,-0.201 ± 0.1
15,H21N,-0.244 ± 0.11
16,H21C,0.057 ± 0.048
17,H21I,-0.478 ± 0.12
18,H21S,0.221 ± 0.053
19,H21E,-0.052 ± 0.057
20,H21P,-0.693 ± 0.14
21,H21K,-0.178 ± 0.097
22,T49D,-0.086 ± 0.1
23,T49I,-0.226 ± 0.12
24,T49Q,-0.199 ± 0.092

row,Variant,abundance fitness
1,T49H,-0.089 ± 0.11
2,T49R,-0.042 ± 0.044
3,T49V,-0.198 ± 0.061
4,T49F,-0.165 ± 0.068
5,T49Y,-0.286 ± 0.093
6,W16I,-0.684 ± 0.1
7,W16K,-0.29 ± 0.1
8,W16L,-0.509 ± 0.043
9,W16G,-0.223 ± 0.053
10,W16N,-0.222 ± 0.1
11,W16M,-0.46 ± 0.082
12,W16T,-0.565 ± 0.075
13,W16Q,-0.388 ± 0.088
14,W16R,-0.408 ± 0.042
15,W16C,-0.502 ± 0.086
16,Q44G,-0.022 ± 0.05
17,Q44P,-0.135 ± 0.054
18,Q44A,-0.028 ± 0.072
19,Q44K,0.11 ± 0.097
20,Q44S,-0.054 ± 0.053
21,Q44F,-0.218 ± 0.079
22,Q44Y,-0.336 ± 0.12
23,Q37L,-0.703 ± 0.061
24,Q37C,-0.207 ± 0.094

row,Variant,abundance fitness
1,Q37N,-0.511 ± 0.11
2,Q37V,-0.397 ± 0.041
3,G15Q,-0.321 ± 0.057
4,G15M,-0.406 ± 0.051
5,G15S,-0.394 ± 0.042
6,G15C,-0.442 ± 0.056
7,G15H,-0.407 ± 0.18
8,G15L,-0.622 ± 0.062
9,G15E,-0.425 ± 0.079
10,G15A,-0.361 ± 0.048
11,G15K,-0.447 ± 0.077
12,G15P,-0.471 ± 0.05
13,G15N,-0.018 ± 0.084
14,L22F,-0.23 ± 0.11
15,L22K,0.206 ± 0.044
16,L22R,0.052 ± 0.043
17,L22N,-0.247 ± 0.12
18,L22G,0.085 ± 0.043
19,L22A,0.156 ± 0.049
20,R42E,-0.752 ± 0.052
21,R42K,-0.352 ± 0.11
22,R42L,-0.787 ± 0.058
23,R42F,-1.09 ± 0.19
24,P13R,-0.698 ± 0.05

row,Variant,abundance fitness
1,P13V,-1.1 ± 0.082
2,P13K,-0.559 ± 0.085
3,P13Y,-0.023 ± 0.1
4,P13L,-0.745 ± 0.056
5,P13T,-1 ± 0.12
6,P13M,-0.799 ± 0.058
7,P13H,-1.04 ± 0.19
8,P13C,-0.766 ± 0.07
9,P13N,-0.437 ± 0.12
10,I29M,-0.141 ± 0.075
11,I29E,-0.105 ± 0.055
12,I29W,-0.332 ± 0.059
13,I29K,-0.027 ± 0.065
14,I29L,-0.175 ± 0.059
15,I29Y,-0.017 ± 0.098
16,I29T,-0.166 ± 0.059
17,A47F,-0.204 ± 0.07
18,A47P,0.008 ± 0.065
19,A47G,0.01 ± 0.045
20,A47K,-0.204 ± 0.097
21,A47N,0.011 ± 0.11
22,A47I,-0.167 ± 0.083
23,A47D,0.218 ± 0.089

# — the Human Domainome abundance scans (Beltran et al. 2025)
